In article PMC4806843, “Structural and Functional Analysis of Calcium Ion Mediated Binding of 5-Lipoxygenase to Nanodiscs” (PLoS ONE, 2016):

Biological target: the molecule itself
Experiment: SEC; size exclusion chromatography of the purified 5LO preparation; standards aldolase (158 kDa) and conalbumin (75 kDa); two peaks, dimer and monomer

B1: human 5-lipoxygenase (enzyme, UniProt P09917 1-674, looked up)
chain: MPSYTVTVATGSQWFAGTDDYIYLSLVGSAGCSEKHLLDKPFYNDFERGAVDSYDVTVDEELGEIQLVRIEKRKYWLNDDWYLKYITLKTPHGDYIEFPCYRWITGDVEVVLRDGRAKLARDDQIHILKQHRRKELETRQKQYRWMEWNPGFPLSIDAKCHKDLPRDIQFDSEKGVDFVLNYSKAMENLFINRFMHMFQSSWNDFADFEKIFVKISNTISERVMNHWQEDLMFGYQFLNGCNPVLIRRCTELPEKLPVTTEMVECSLERQLSLEQEVQQGNIFIVDFELLDGIDANKTDPCTLQFLAAPICLLYKNLANKIVPIAIQLNQIPGDENPIFLPSDAKYDWLLAKIWVRSSDFHVHQTITHLLRTHLVSEVFGIAMYRQLPAVHPIFKLLVAHVRFTIAINTKAREQLICECGLFDKANATGGGGHVQMVQRAMKDLTYASLCFPEAIKARGMESKEDIPYYFYRDDGLLVWEAIRTFTAEVVDIYYEGDQVVEEDPELQDFVNDVYVYGMRGRKSSGFPKSVKSREQLSEYLTVVIFTASAQHAAVNFGQYDWCSWIPNAPPTMRAPPPTAKGVVTIEQIVDTLPDRGRSCWHLGAVWALSQFQENELFLGMYPEEHFIEKPVKEAMARFRKNLEAIVSVIAERNKKKQLPYYYLSPDRIPNSVAI
notes: 5-lipoxygenase (5LO), human, recombinant from pT3-5LO; 78 kDa; The preparation holds monomer and dimer, which were separated by SEC; also called 5LO; monomeric 5LO; source: E. coli BL21-(DE3) transformed with pT3-5LO, purified (ammonium sulfate precipitation, ATP agarose, gel filtration)
B1 was tested. Which “stoichiometry N” value did it give?
Its value is 2.
